Measured values published in article PMC4869865 (Structure (London, England : 1993), 2010).
Like-named read-outs stand apart in the source and are kept apart here.

Legend:
Assay in all cases: native MS
native MS [1] = molecular target: the molecule itself
native MS [2] = molecular target: the molecule itself; remark: listed apart in the source
δδ′ subcomplex = δδ′ subcomplex (E. coli, UniProt P28630 1-343; P28631 1-334)

binding result (δδ′ subcomplex): binds
B1: γ subunit (DnaX) of the E. coli clamp loader (natural protein, UniProt P06710-2 1-431, looked up)
chain: MSYQVLARKWRPQTFADVVGQEHVLTALANGLSLGRIHHAYLFSGTRGVGKTSIARLLAKGLNCETGITATPCGVCDNCREIEQGRFVDLIEIDAASRTKVEDTRDLLDNVQYAPARGRFKVYLIDEVHMLSRHSFNALLKTLEEPPEHVKFLLATTDPQKLPVTILSRCLQFHLKALDVEQIRHQLEHILNEEHIAHEPRALQLLARAAEGSLRDALSLTDQAIASGDGQVSTQAVSAMLGTLDDDQALSLVEAMVEANGERVMALINEAAARGIEWEALLVEMLGLLHRIAMVQLSPAALGNDMAAIELRMRELARTIPPTDIQLYYQTLLIGRKELPYAPDRRMGVEMTLLRALAFHPRMPLPEPEVPRQSFAPVAPTAVMTPTQVPPQPQSAPQQAPTVPLPETTSQVLAARQQLQRVQGATKAKKE
stoichiometry N (native MS [1]): 4 | stoichiometry N (native MS [2]): 3
